Data on 41 sequences can be found in the nanobody polyreactivity screen of Harvey et al. (2022).

The nature of the data set: yeast display, Sf9 membrane polyspecificity reagent, FACS + sequencing; frameworks hold sequencing errors. A digest of the protocol: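 In a synthetic yeast display library (Saccharomyces cerevisiae BJ5465), nanobody expression was induced with galactose for 36–48 hours. FACS gates were set low and high (top ~1%) using anti-HA fluorescence for expression and streptavidin fluorescence for binding of the Sf9 membrane reagent. Each polyreactivity label is drawn from the gate of origin.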
Turning to “QVQLVESGGGLVQAGGSLRLSCAASGRTFGLYAMGWYRQAPGKETELVAAISSSGGSTYYADSVKGRFTISRDNAKNTVYLQMNSLKPEDTAVYYCAKYRRVGYLYDYWGQGTQVTVSS”, the “polyreactivity (PSR sort gate)” value is “high polyreactivity”.

“QVQLVESGGGLVQAGGSLRLSCAASGRTFGNNAMGWYRQAPGKEREFVAAITSRGGSTYYADSVKGRFTISRDNAKNTVYLQINSLKPEDTAVYYCNREYQLPSQRTEHYYWGQGTQVTVSS”: the “polyreactivity (PSR sort gate)” value was “low polyreactivity”.

For the sequence “QVQLVESGGGLVQAGGSLRLSCAASGRTFGNYAMGWYRQAPGKERELVAAISSGRSTNYADSVKRRFTISRDNGKNTVYLQMNSLKPEDTAVYYCNADWGFPDVKETGVRFDYWGQGTQVTVSW”, the “polyreactivity (PSR sort gate)” value is “low polyreactivity”.

On to “QVQLVESGGGLVQAGGSLRLSCAASGRTFGPNGMGWYRQAPGKERELVAAITRRGGSTYYADSVKGRFTISRDNEKNTVYLQMNSLKPEDTAVYYCAAYSSWGGFDYWGQGTQVTVSS”, for which the “polyreactivity (PSR sort gate)” value is “low polyreactivity”.

Regarding “QVQLVESGGGLVQAGGSLRLSCAASGRTFGPYAKGWYRQAPGKERELVAAITDTGSGTFYADSVKGRFTISRDNAKNTVYFQMNSLKPEDTAVYYCNAVRKYWGQGTEVTVSS”, the “polyreactivity (PSR sort gate)” value is reported as “low polyreactivity”.

Consider “QVQLVESGGGLVQAGGSLRLSCAASGRTFGPYAMGWSRQAPGKERELVAAITWSGGSTYYADSVKGRFTISRDNAKNTVYLQMNSLKPEDTAVYYCAAKFSIWTLKKYYYWGQGTQVTVSS”, for which the “polyreactivity (PSR sort gate)” value is listed as “high polyreactivity”.

On to “QVQLVESGGGLVQAGGSLRLSCAASGRTFGPYAMGWYRQPPGKEREFVAAISYSGGSTYYADSVKGRLTISRDNAKNTVDLQMNSLKPEVTAVYYCAVDIDANSGTRDYWGQGTQVTVSS”, for which the “polyreactivity (PSR sort gate)” value is recorded as “low polyreactivity”.

On to “QVQLVESGGGLVQAGGSLRLSCAASGRTFGPYSMGWYRQAPGKERELVAAISSSGSTTYYADSVKGRFTISRDNAKNTVYLQMNSLKPEDTAVYYCAKPSSRDSPYDYWGQGSQVTVSS”, for which the “polyreactivity (PSR sort gate)” value is “low polyreactivity”.

For “QVQLVESGGGLVQAGGSLRLSCAASGRTFGPYTMGGYIQAPGKEREFVAAIRSRGDTTYYADSVKGRFTISRDNAKNTVYLQMNSLKPEDTAVYYCAARSYFLVAGSRYDYWGQGTQVTVSS”, the “polyreactivity (PSR sort gate)” value is “high polyreactivity”.

On to “QVQLVESGGGLVQAGGSLRLSCAASGRTFGPYTMGWYRQAPGKERELVATIRSDNTYYADSVKGRFTISRDNAKNTVYLQMNSLKPEDTAVYYCNAGYYSRYSYPYKYYYWGQGTQVTVSS”, for which the “polyreactivity (PSR sort gate)” value is “high polyreactivity”.

With “QVQLVESGGGLVQAGGSLRLSCAASGRTFGQHAMGWYRQAPGKDRELVASIRSGGITDYADSVKGRFTISRDNAKNTVYLQMNSLKPEDTAVYYCNAEGVWWSTRYDSWGQGTQVTVSS”, the “polyreactivity (PSR sort gate)” value is reported as “low polyreactivity”.

Turning to “QVQLVESGGGLVQAGGSLRLSCAASGRTFGQNTMGWYRQAPGKERELVAAIRNRGGSTYYADSVKGRFTISRDNAKKTGYVQMNSLKPEDTAVYYCAAYPYWKGDYWGQGTQVTVSS”, the “polyreactivity (PSR sort gate)” value is given as “high polyreactivity”.

For “QVQLVESGGGLVQAGGSLRLSCAASGRTFGQYAMGLYRQAPGKERELVAAITTRGGSTYYADSVKGRFTISRDNAKNTVYLQMNSLKPEDTAVYYCNADYPVKRRRGRDYWGQGTQVTVSS”, the “polyreactivity (PSR sort gate)” value is “high polyreactivity”.

For the sequence “QVQLVESGGGLVQAGGSLRLSCAASGRTFGQYAMGWYRQAPGKEREFVAAITSSGGSTYYADSVNGRFTISRDNAKNTVYLLMNSLNPEDTAVYYCAAPISRSAGWDSYDYWGQGTQVTVSS”, the “polyreactivity (PSR sort gate)” value was “low polyreactivity”.

For “QVQLVESGGGLVQAGGSLRLSCAASGRTFGQYVMGWYREAPGKERELVAAIRSGGSTYYADSVKGRFTISRDNAKNTVYLQMNSLKPEDTAVYYCANETYYGTDNFGQVGGEMDYWGQGTQVTVSS”, the “polyreactivity (PSR sort gate)” value is listed as “low polyreactivity”.

As for “QVQLVESGGGLVQAGGSLRLSCAASGRTFGRNAMGWYRQAPGKERELVAAISLRGGRTYYADSVKGRFTISRDNAKNTVYLQMNSLKPEDTAVYYCAAVQPVGLYPRTKYYYWGQGTQVTVSS”, the “polyreactivity (PSR sort gate)” value is “high polyreactivity”.

For “QVQLVESGGGLVQAGGSLRLSCAASGRTFGRNAMGWYRQAPGKERELVAAISSSADRTYYADSVKGRFTISRDNAKNNVYVEMNSLKPEDTAVYYCAARTFWGAYDYWGQGTQVTVSS”, the “polyreactivity (PSR sort gate)” value is given as “high polyreactivity”.

“QVQLVESGGGLVQAGGSLRLSCAASGRTFGRNAMGWYRQAPGKERELVAAISSSGGRTYYADSVKGRFTISRDNAKNTVYLQMNSLKPEDTAVYYCNALTYYRDYWGQGTQVTVSS”: the “polyreactivity (PSR sort gate)” value is on record as “high polyreactivity”.

Take “QVQLVESGGGLVQAGGSLRLSCAASGRTFGRNAMGWYRQATGKERELVAPISRDGSTYYADSVKGRFTISRDNAKNTVYLQMNSLKPEDTAVYYCAADRPWYYTLTPIHGYDYWGQGTQVTVSS”: the “polyreactivity (PSR sort gate)” value is listed as “low polyreactivity”.

As to “QVQLVESGGGLVQAGGSLRLSCAASGRTFGRNVMGWYRQAPGKERELVAAISRSGGSTYYADSVKGRFTISRDNAKNTVYLQINSLKPEDTAVYYCAAYSVGDYYWGQGTQVTVSS”, the “polyreactivity (PSR sort gate)” value is recorded as “high polyreactivity”.

On to “QVQLVESGGGLVQAGGSLRLSCAASGRTFGRYALGWYRQAPGKERELVATITSGGSTNYADSVKGRFTISRDNAKNTVYLQMNSLKPEDTAVYYCAAEFSPSRWAYSEGALRYNYWGQGTQVTVSS”, for which the “polyreactivity (PSR sort gate)” value is listed as “low polyreactivity”.

For the sequence “QVQLVESGGGLVQAGGSLRLSCAASGRTFGRYAMGGYRQAPGKERELVAAINSGGSTYYADSVKGRFTISRDNAKNTVYLQMNSLKPEDTAVYYCAADWYYWGFIFDYWGQGTQVTVSS”, the “polyreactivity (PSR sort gate)” value is “high polyreactivity”.

For the sequence “QVQLVESGGGLVQAGGSLRLSCAASGRTFGRYAMGWSRQAPGKERELVATITSGGSTNYADSVKGRFTISRDNAKNTVYLQMNSLKPEDTAVYYCAAEFSPSRWAYSEGALRYNYWGQGTQVTVSS”, the “polyreactivity (PSR sort gate)” value is “low polyreactivity”.

Take “QVQLVESGGGLVQAGGSLRLSCAASGRTFGRYAMGWYRQAPGKEREFVASMSRRGGTTYYADSVKGRFTISRDNEKNTVYLQMNSLNPEDTAVYYCNADRTVIYDYEYWGQGTQVTVSS”: the “polyreactivity (PSR sort gate)” value is given as “low polyreactivity”.

For the sequence “QVQLVESGGGLVQAGGSLRLSCAASGRTFGRYAMGWYRQAPGKERELVAAINRGGSTKYADSVKGRFTISRDNAKNTVYLQRNSQKPEDSAVYYCAKDLHPALHYDYWGQGTQVTVSS”, the “polyreactivity (PSR sort gate)” value is listed as “low polyreactivity”.

For the sequence “QVQLVESGGGLVQAGGSLRLSCAASGRTFGRYAMGWYRQAPGKERELVAAISWSGGSTYYADSVKGRFTISRDNAKNSVYLQMNSLKPEDTAVYYCAAYEHVYVYDYWGQGTQVTVSS”, the “polyreactivity (PSR sort gate)” value was “low polyreactivity”.

As to “QVQLVESGGGLVQAGGSLRLSCAASGRTFGRYAMGWYRQAPGKERELVAAISYSTDSTYYADSVKGRFTISRDNAKNTVYLQMNSLKPEDTAVYYCASDSVIVGSYVGDKHDYWGQGTQVTVSW”, the “polyreactivity (PSR sort gate)” value is given as “low polyreactivity”.

As to “QVQLVESGGGLVQAGGSLRLSCAASGRTFGRYAMGWYRQAPGKERELVAVISWSDGGTNYADSVKGRFTISRDNAKNTVYLQMNSLKPEDTAVYYCNAELSFRYPVFRELDYWGQGTQVTVSS”, the “polyreactivity (PSR sort gate)” value is on record as “low polyreactivity”.

For “QVQLVESGGGLVQAGGSLRLSCAASGRTFGRYAMGWYRQAPWKERELVAAITVGGGSTYYADSVKGRFTISRDNAKNTVYLQMNSLKPEDTAVYYCNALHTYTYRYDYYYWGQGTQVTVSS”, the “polyreactivity (PSR sort gate)” value is on record as “high polyreactivity”.

On to “QVQLVESGGGLVQAGGSLRLSCAASGRTFGRYTMGWYRQAPGKERELVAAITGRGGSTFYADSVKGRFTISRDYAKNTVYLQMNSLKPEDTAVYYCAARRTSIKDQFYYWGQGTQVTVSS”, for which the “polyreactivity (PSR sort gate)” value is “high polyreactivity”.

Consider “QVQLVESGGGLVQAGGSLRLSCAASGRTFGRYVMGWYIQAPGKERELVARISSAGGTNYADSVKGRFTISRDNAKNTVYLQMNSLKPEDTAVYYCNFTRYWRAHLGYYWGQGTQVTVSS”, for which the “polyreactivity (PSR sort gate)” value was “high polyreactivity”.

With “QVQLVESGGGLVQAGGSLRLSCAASGRTFGSNAMGWFIQAPGKERELVAAISSSDSTNYADSVKGRFTISRDNAKNTVYLQMNSLKPEETAVYYCNAGHPVRSPGYDYWGQGTQVTVSS”, the “polyreactivity (PSR sort gate)” value is “low polyreactivity”.

As for “QVQLVESGGGLVQAGGSLRLSCAASGRTFGSNAMGWYRQAPGKERELVAAIRWGGGSTYYADSVKGRFTISRDNAKNTVYLQMNSLKPEDTAVYYCAAAYNWRKYDYWGQGTQVTVSS”, the “polyreactivity (PSR sort gate)” value was “high polyreactivity”.

Consider “QVQLVESGGGLVQAGGSLRLSCAASGRTFGSNAMGWYRQAPGKERELVAAISVRGGRTYSADSVKGRFTISRDNAKNTVSLQMNSLKPEDTAVYYCAADPYPISKYWFYHAVDYDSWGQGTQVTVSS”, for which the “polyreactivity (PSR sort gate)” value is “high polyreactivity”.

On to “QVQLVESGGGLVQAGGSLRLSCAASGRTFGSNTMGWYRQAPGKERELVAAISGTGTSTYYADSVKGRFTISRDNAKNTVYLQMNSLKQEDTAVYYCAAGWYKYLFQPHDYWGQGTQVTVSS”, for which the “polyreactivity (PSR sort gate)” value is “low polyreactivity”.

Turning to “QVQLVESGGGLVQAGGSLRLSCAASGRTFGSYVMVWYRQAPGKEREFVAVISGSVGSTYYADSVKGRFTISRDNAKNTVYLQMNSLKPEDTAVYYCARRGIRTSETKQYHQYNYWGQGTQVTVSS”, the “polyreactivity (PSR sort gate)” value is recorded as “low polyreactivity”.

“QVQLVESGGGLVQAGGSLRLSCAASGRTFGTNTMGWYRPAPGKERELVAAISRSGVRTYYADSVKGRFTISRDNAKNTVYLQMKSLKPEDTAVYYCATDYKVHGFDYWGQGTQVTVSS”: the “polyreactivity (PSR sort gate)” value is recorded as “high polyreactivity”.

For the sequence “QVQLVESGGGLVQAGGSLRLSCAASGRTFGTYAMGWYIQAPGKERELVAAIRSNAGSTYYADSVKGRFTISRDNAKNTVYLQMNSLKPEDNAVYYCAKSYRCSRRYNYWGQGTQVTVSS”, the “polyreactivity (PSR sort gate)” value is on record as “high polyreactivity”.

Consider “QVQLVESGGGLVQAGGSLRLSCAASGRTFGTYAMGWYRQAPGKERELVAAISTRDGSTYYADSVKGRFTISRDNAKNTVYLQMNSLKPEDTAVYYCNATWSVPSGQYDYWGQGTQVTVSS”, for which the “polyreactivity (PSR sort gate)” value is on record as “low polyreactivity”.

Take “QVQLVESGGGLVQAGGSLRLSCAASGRTFGTYAMGWYRQAPGKERELVARISYTGGSTSYADSVKGRFTISRDNAKNTVYLQMNSLKPEDTAVYYCNASSRSGSWRFYYWGQGTQVTVSS”: the “polyreactivity (PSR sort gate)” value is recorded as “high polyreactivity”.

Consider “QVQLVESGGGLVQAGGSLRLSCAASGRTFGTYAMGWYRQEPGKERELFATISSGGSTYYADSVKGRFTISRDNAKNTVYLLMNSLKPEDTAVYYCAAYRYFRPGDYWGQGTQVNVSS”, for which the “polyreactivity (PSR sort gate)” value was “low polyreactivity”.
